# How the values were obtained:
# Experiment in all cases: two-hybrid
# [1] = biological target: Gt-3 ORF3 KISS (hepatitis E virus genotype 3 (Kernow-C1 p6))
# [2] = biological target: Gt-1 ORF3 KISS (hepatitis E virus genotype 1 (Sar-55))
# [3] = biological target: Gt-1 ORF3 MAPPIT (hepatitis E virus genotype 1 (Sar-55))
binder,measurement,setting,value
SHANK-Associated RH Domain Interactor (natural protein) MAPPAGGAAAAASDLGSAAVLLAVHAAVRPLGAGPDAEAQLRRLQLSADPERPGRFRLELLGAGPGAVNLEWPLESVSYTIRGPTQHELQPPPGGPGTLSLHFLNPQEAQRWAVLVRGATVEGQNGSKSNSPPALGPEACPVSLPSPPEASTLKGPPPEADLPRSPGNLTEREELAGSLARAIAGGDEKGAAQVAAVLAQHRVALSVQLQEACFPPGPIRLQVTLEDAASAASAASSAHVALQVHPHCTVAALQEQVFSELGFPPAVQRWVIGRCLCVPERSLASYGVRQDGDPAFLYLLSAPREAPATGPSPQHPQKMDGELGRLFPPSLGLPPGPQPAASSLPSPLQPSWSCPSCTFINAPDRPGCEMCSTQRPCTWDPLAAAST,BP/BIP,[1],25.4
same,BP/PIB,[1],101
same,Value BP (bait-prey luciferase value),[1],188000
same,BP/BIP,[2],42.2
same,BP/PIB,[2],429
same,Value BP (bait-prey luciferase value),[2],796000
same,BP/BIP,[3],61.2
same,BP/PIB,[3],69.9
same,Value BP (bait-prey fold induction),[3],82.1
